# Patent EP2170953B1
# Tests used:
# [1] = molecular target: Aβ1-42 peptide, oligomer-enriched preparation; experiment: ELISA assay 1, Ab 1:128 of 0.5 µg/ml
# [2] = molecular target: Aβ1-42 peptide, monomer-enriched preparation; experiment: ELISA assay 2, Ab 1:128 of 0.5 µg/ml
# [3] = molecular target: Aβ1-42 peptide, oligomer-enriched preparation; experiment: ELISA assay 2, Ab 1:128 of 0.5 µg/ml
# [4] = molecular target: Aβ1-42 peptide, monomer-enriched preparation; experiment: ELISA assay 3, Ab 1:128 of 0.5 µg/ml
# [5] = molecular target: Aβ1-42 peptide, oligomer-enriched preparation; experiment: ELISA assay 3, Ab 1:128 of 0.5 µg/ml
# [6] = molecular target: Aβ1-42 peptide, monomer-enriched preparation; experiment: ELISA mean of 3, Ab 1:1 of 0.5 µg/ml
# [7] = molecular target: Aβ1-42 peptide, oligomer-enriched preparation; experiment: ELISA mean of 3, Ab 1:1 of 0.5 µg/ml
# [8] = molecular target: Aβ1-42 peptide, monomer-enriched preparation; experiment: ELISA mean of 3, Ab 1:2 of 0.5 µg/ml
# [9] = molecular target: Aβ1-42 peptide, oligomer-enriched preparation; experiment: ELISA mean of 3, Ab 1:2 of 0.5 µg/ml
# [10] = molecular target: Aβ1-42 peptide, monomer-enriched preparation; experiment: ELISA mean of 3, Ab 1:4 of 0.5 µg/ml
# [11] = molecular target: Aβ1-42 peptide, oligomer-enriched preparation; experiment: ELISA mean of 3, Ab 1:4 of 0.5 µg/ml
# [12] = molecular target: Aβ1-42 peptide, oligomer-enriched preparation; experiment: ELISA mean of 3, Ab 1:8 of 0.5 µg/ml
# [13] = molecular target: Aβ1-42 peptide, monomer-enriched preparation; experiment: ELISA mean of 3, Ab 1:16 of 0.5 µg/ml
# [14] = molecular target: Aβ1-42 peptide, oligomer-enriched preparation; experiment: ELISA mean of 3, Ab 1:16 of 0.5 µg/ml
# [15] = molecular target: Aβ1-42 peptide, monomer-enriched preparation; experiment: ELISA mean of 3, Ab 1:32 of 0.5 µg/ml
# [16] = molecular target: Aβ1-42 peptide, oligomer-enriched preparation; experiment: ELISA mean of 3, Ab 1:32 of 0.5 µg/ml
# [17] = molecular target: Aβ1-42 peptide, monomer-enriched preparation; experiment: ELISA mean of 3, Ab 1:64 of 0.5 µg/ml
# [18] = molecular target: Aβ1-42 peptide, oligomer-enriched preparation; experiment: ELISA mean of 3, Ab 1:64 of 0.5 µg/ml
# [19] = molecular target: Aβ1-42 peptide, high molecular weight (HMW) proto-fibrillar (PF) oligomer enriched preparation (human); experiment: ELISA on coated fraction, Ab 0.5 µg/ml
# [20] = molecular target: Aβ1-42 peptide, low molecular weight (LMW) monomer preparation (human); experiment: ELISA on coated fraction, Ab 0.5 µg/ml
# [21] = molecular target: Aβ1-42 peptide, monomer-enriched preparation; experiment: ELISA mean of 3, Ab 1:128 of 0.5 µg/ml
# [22] = molecular target: Aβ1-42 peptide, oligomer-enriched preparation; experiment: ELISA mean of 3, Ab 1:128 of 0.5 µg/ml
# [23] = molecular target: Aβ1-42 peptide, high molecular weight (HMW) proto-fibrillar (PF) oligomer enriched preparation (human); experiment: ELISA on coated fraction, Ab 0.25 µg/ml
# [24] = molecular target: Aβ1-42 peptide, low molecular weight (LMW) monomer preparation (human); experiment: ELISA on coated fraction, Ab 0.25 µg/ml
# [25] = molecular target: Aβ1-42 peptide, high molecular weight (HMW) proto-fibrillar (PF) oligomer enriched preparation (human); experiment: ELISA on coated fraction, Ab 0.125 µg/ml
# [26] = molecular target: Aβ1-42 peptide, low molecular weight (LMW) monomer preparation (human); experiment: ELISA on coated fraction, Ab 0.125 µg/ml
# [27] = molecular target: Aβ1-42 peptide, high molecular weight (HMW) proto-fibrillar (PF) oligomer enriched preparation (human); experiment: ELISA on coated fraction, Ab 0.0078 µg/ml
# [28] = molecular target: Aβ1-42 peptide, low molecular weight (LMW) monomer preparation (human); experiment: ELISA on coated fraction, Ab 0.0078 µg/ml
# [29] = molecular target: Aβ1-42 peptide, high molecular weight (HMW) proto-fibrillar (PF) oligomer enriched preparation (human); experiment: ELISA on coated fraction, Ab 0.0156 µg/ml
# [30] = molecular target: Aβ1-42 peptide, low molecular weight (LMW) monomer preparation (human); experiment: ELISA on coated fraction, Ab 0.0156 µg/ml
# [31] = molecular target: Aβ1-42 peptide, high molecular weight (HMW) proto-fibrillar (PF) oligomer enriched preparation (human); experiment: ELISA on coated fraction, Ab 0.0313 µg/ml
# [32] = molecular target: Aβ1-42 peptide, low molecular weight (LMW) monomer preparation (human); experiment: ELISA on coated fraction, Ab 0.0313 µg/ml
# [33] = molecular target: Aβ1-42 peptide, high molecular weight (HMW) proto-fibrillar (PF) oligomer enriched preparation (human); experiment: ELISA on coated fraction, Ab 0.0625 µg/ml
# [34] = molecular target: Aβ1-42 peptide, low molecular weight (LMW) monomer preparation (human); experiment: ELISA on coated fraction, Ab 0.0625 µg/ml
# [35] = molecular target: Aβ1-42 peptide, high molecular weight (HMW) proto-fibrillar (PF) oligomer enriched preparation (human); experiment: ELISA, Ab 1 µg/ml; proto-fibrils against LMW monomers (given without sign)
# [36] = molecular target: Aβ1-42 peptide, high molecular weight (HMW) proto-fibrillar (PF) oligomer enriched preparation (human); experiment: ELISA, Ab 0.5 µg/ml; proto-fibrils against LMW monomers (given without sign)
# [37] = molecular target: Aβ1-42 peptide, high molecular weight (HMW) proto-fibrillar (PF) oligomer enriched preparation (human); experiment: ELISA, Ab 0.25 µg/ml; proto-fibrils against LMW monomers (given without sign)
# [38] = molecular target: Aβ1-42 peptide, high molecular weight (HMW) proto-fibrillar (PF) oligomer enriched preparation (human); experiment: ELISA, Ab 0.125 µg/ml; proto-fibrils against LMW monomers (given without sign)
# [39] = molecular target: Aβ1-42 peptide, high molecular weight (HMW) proto-fibrillar (PF) oligomer enriched preparation (human); experiment: ELISA, Ab 0.0078 µg/ml; proto-fibrils against LMW monomers (given without sign)
# [40] = molecular target: Aβ1-42 peptide, high molecular weight (HMW) proto-fibrillar (PF) oligomer enriched preparation (human); experiment: ELISA, Ab 0.0156 µg/ml; proto-fibrils against LMW monomers (given without sign)
# [41] = molecular target: Aβ1-42 peptide, high molecular weight (HMW) proto-fibrillar (PF) oligomer enriched preparation (human); experiment: ELISA, Ab 0.0313 µg/ml; proto-fibrils against LMW monomers (given without sign)
# [42] = molecular target: Aβ1-42 peptide, high molecular weight (HMW) proto-fibrillar (PF) oligomer enriched preparation (human); experiment: ELISA, Ab 0.0625 µg/ml; proto-fibrils against LMW monomers (given without sign)
# Aβ1-42 peptide, low molecular weight (LMW) monomer preparation (human), sequence (peptide, as listed by the source, form in doubt): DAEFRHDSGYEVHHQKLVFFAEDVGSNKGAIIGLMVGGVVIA
# Aβ1-42 peptide, high molecular weight (HMW) proto-fibrillar (PF) oligomer enriched preparation (human), sequence (peptide, as listed by the source, form in doubt): as above
# Aβ1-42 peptide, oligomer-enriched preparation, sequence (peptide, as listed by the source, form in doubt): as above
# Aβ1-42 peptide, monomer-enriched preparation, sequence (peptide, as listed by the source, form in doubt): as above
substance,measurement,setting,value
6E10 control antibody,O.D.,[1],0.62 O.D.
same,O.D.,[2],0.75 O.D.
same,O.D.,[3],0.61 O.D.
same,O.D.,[4],0.86 O.D.
same,O.D.,[5],0.66 O.D.
same,O.D. (mean),[6],3.83 O.D.
same,O.D. (mean),[7],3.64 O.D.
same,O.D. (mean),[8],3.59 O.D.
same,O.D. (mean),[9],3.59 O.D.
same,O.D. (mean),[10],3.27 O.D.
same,O.D. (mean),[11],3.37 O.D.
same,O.D. (mean),[12],2.98 O.D.
same,O.D. (mean),[13],1.98 O.D.
same,O.D. (mean),[14],1.92 O.D.
same,O.D. (mean),[15],1.36 O.D.
same,O.D. (mean),[16],1.32 O.D.
same,O.D. (mean),[17],0.94 O.D.
same,O.D. (mean),[18],0.92 O.D.
same,O.D.,[19],2 O.D.
same,O.D.,[20],2.13 O.D.
same,O.D. (mean),[21],0.75 O.D.
same,O.D. (mean),[22],0.63 O.D.
same,O.D.,[23],1.44 O.D.
same,O.D.,[24],1.56 O.D.
same,O.D.,[25],0.863 O.D.
same,O.D.,[26],0.999 O.D.
same,O.D.,[27],0.116 O.D.
same,O.D.,[28],0.133 O.D.
same,O.D.,[29],0.201 O.D.
same,O.D.,[30],0.207 O.D.
same,O.D.,[31],0.286 O.D.
same,O.D.,[32],0.329 O.D.
same,O.D.,[33],0.544 O.D.
same,O.D.,[34],0.574 O.D.
same,O.D. difference,[35],0.13 O.D.
same,O.D. difference,[36],0.13 O.D.
same,O.D. difference,[37],0.12 O.D.
same,O.D. difference,[38],0.14 O.D.
same,O.D. difference,[39],0.02 O.D.
same,O.D. difference,[40],0.01 O.D.
same,O.D. difference,[41],0.04 O.D.
same,O.D. difference,[42],0.03 O.D.
